In data set [1] the target is T1, PhoP K201A K201A (Salmonella enterica serovar Typhimurium) (UniProt D0ZV90).
T1 sequence: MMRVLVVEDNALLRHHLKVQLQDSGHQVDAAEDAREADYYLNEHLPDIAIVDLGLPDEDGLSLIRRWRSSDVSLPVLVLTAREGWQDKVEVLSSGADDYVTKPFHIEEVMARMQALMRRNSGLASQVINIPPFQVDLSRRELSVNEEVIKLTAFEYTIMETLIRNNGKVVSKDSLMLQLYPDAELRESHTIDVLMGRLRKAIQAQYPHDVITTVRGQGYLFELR
The experiment in a line: EMSA. The conditions noted are these: EMSA: 25 mM Tris-HCl pH 8.0, 50 mM KCl, 0.5 mM EDTA, 10% glycerol, 37 C 30 min, gel at 4 C; SPR: Biacore 2000, streptavidin chip, buffer not given. (In general: In EMSA bound probe runs differently from free probe, usually more slowly.)

Data set [2] has as its target T2, PhoP K201Q K201Q (Salmonella enterica serovar Typhimurium) (UniProt D0ZV90).
T2 sequence: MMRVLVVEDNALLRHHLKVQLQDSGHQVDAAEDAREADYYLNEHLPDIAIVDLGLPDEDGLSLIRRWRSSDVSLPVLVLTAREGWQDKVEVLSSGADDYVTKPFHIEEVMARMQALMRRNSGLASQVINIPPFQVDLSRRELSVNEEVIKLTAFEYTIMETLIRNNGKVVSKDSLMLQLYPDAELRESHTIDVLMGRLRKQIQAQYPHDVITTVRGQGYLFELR
The experiment in a line: EMSA. Conditions: EMSA: 25 mM Tris-HCl pH 8.0, 50 mM KCl, 0.5 mM EDTA, 10% glycerol, 37 C 30 min, gel at 4 C; SPR: Biacore 2000, streptavidin chip, buffer not given.

Data set [3] addresses T3, PhoP K201R K201R (Salmonella enterica serovar Typhimurium) (UniProt D0ZV90).
T3 sequence: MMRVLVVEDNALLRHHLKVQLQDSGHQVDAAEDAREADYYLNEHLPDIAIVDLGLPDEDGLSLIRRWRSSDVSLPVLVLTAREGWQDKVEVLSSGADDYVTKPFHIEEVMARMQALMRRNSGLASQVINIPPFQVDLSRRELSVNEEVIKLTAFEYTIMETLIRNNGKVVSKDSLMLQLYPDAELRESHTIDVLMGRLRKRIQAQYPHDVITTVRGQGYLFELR
The experiment in a line: EMSA. The conditions noted are these: EMSA: 25 mM Tris-HCl pH 8.0, 50 mM KCl, 0.5 mM EDTA, 10% glycerol, 37 C 30 min, gel at 4 C; SPR: Biacore 2000, streptavidin chip, buffer not given.

Data set [4] deals with T4, PhoP WT (Salmonella enterica serovar Typhimurium) (UniProt D0ZV90).
T4 sequence: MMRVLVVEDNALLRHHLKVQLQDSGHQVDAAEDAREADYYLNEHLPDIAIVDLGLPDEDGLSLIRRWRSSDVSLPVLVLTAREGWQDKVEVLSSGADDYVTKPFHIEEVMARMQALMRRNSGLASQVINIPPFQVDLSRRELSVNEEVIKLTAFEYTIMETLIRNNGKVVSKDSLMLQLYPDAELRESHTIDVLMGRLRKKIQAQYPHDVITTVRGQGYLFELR
The experiment in a line: EMSA. Conditions: EMSA: 25 mM Tris-HCl pH 8.0, 50 mM KCl, 0.5 mM EDTA, 10% glycerol, 37 C 30 min, gel at 4 C; SPR: Biacore 2000, streptavidin chip, buffer not given.

The next data set deals with PhoP WT (Salmonella enterica serovar Typhimurium, UniProt D0ZV90 1-224). The experiment in a line: SPR; 0.3-1 uM PhoP; response 2.3-fold (0.6 uM) and 4.0-fold (1 uM) of that at 0.3 uM; EMSA: 25 mM Tris-HCl pH 8.0, 50 mM KCl, 0.5 mM EDTA, 10% glycerol, 37 C 30 min, gel at 4 C; SPR: Biacore 2000, streptavidin chip, buffer not given. Conditions: protein: recombinant; tags: C-terminal 6xHis; chain copies: 2; label: 5'-biotin on strand 1; blunt. (In general: In SPR one partner is held on a chip, and binding of the other changes the refractive index at the surface.)

Turning to “ATCCTCTACAACCAGTACGCGCATCATCTCTTCTCCCTTGTGTTAACAATAAGAACAGTCTAGCGTTGATTATGGTGCTTTGGGGATAAACAGTTAATAAACCAGACAAATAGTCACCCTCTTTCTGAAGAAAAGAGGGTGAGGCAGGCATTATTTAAGTTCGTCGACCAGAGTCACAGCGCGA (double strand) [phoP promoter 184 bp]”, the binding result in data set [1] is “binds more weakly”; in data set [2], “binds more weakly”; in data set [3] it was “binds”; in data set [4], “binds”.

B1: PhoP box of phoP promoter (dsDNA)
DNA 1: GGGGTCTGGTTTATTAACTGTTTATCCGGGG
DNA 2: CCCCGGATAAACAGTTAATAAACCAGACCCC
B1: the binding result with PhoP WT was “binds”.
